System: Bacillus subtilis
Assay: cleaved RNA product abundance (RNA/gDNA barcode ratio) relative to median wild-type variant (ratio to wild type); higher = more accumulation of the downstream cleavage product
Details: cleavage site: cggR-gapA (positions -7 to +36 mutated)
Outline: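 B. subtilis strains with chromosomally integrated reporter mRNAs (truncated aprE or tetM) holding barcoded, mutagenized RNase Y cleavage-site windows grew in LB at 37°C from OD600 0.0003 to 0.3. Cleaved product abundance is each construct's RNA:gDNA barcode ratio, scaled to the median construct with the unmutated site. It came from sequencing barcodes of gel-selected, reverse-transcribed cleaved RNA and of genomic DNA.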

[1] = experiment (reporter, strain, medium): exp 4a: truncated aprE reporter, strain BJT201 with 2% xylose (RNase J1 expressed)
[2] = experiment (reporter, strain, medium): exp 2b: truncated aprE reporter, strain BJT200
[3] = experiment (reporter, strain, medium): exp 6: tetM reporter, strain 168

Row | Sequence | cleaved RNA product abundance [1] | cleaved RNA product abundance [2] | cleaved RNA product abundance [3]
1 | ACAGACGAAGGAGCCGCACACAAGTTATTAAGGGATGAATAATCCCTCAATATAAATATCTCTCACTTATTTAAA | 0.483 | – | –
2 | ACAGACGAAGGAGCCGCACAGAACTTATTAAGGGATGAATAATCCCTCAATATAAATATCTCTCACTTATTTAAA | 0.558 | – | –
3 | ACAGACGAAGGAGCCGCACAGAAGATATTAAGGGATGAATAATCCCTCAATATAAATATCTCTCACTTATTTAAA | 0.364 | – | –
4 | ACAGACGAAGGAGCCGCACAGAAGTAATTAAGGGATGAATAATCCCTCAATATAAATATCTCTCACTTATTTAAA | 0.391 | – | –
5 | ACAGACGAAGGAGCCGCACAGAAGTCATTAAGGGATGAATAATCCCTCAATATAAATATCTCTCACTTATTTAAA | 0.43 | – | –
6 | ACAGACGAAGGAGCCGCACAGAAGTGATTAAGGGATGAATAATCCCTCAATATAAATATCTCTCACTTATTTAAA | 0.311 | 0.259 | –
7 | ACAGACGAAGGAGCCGCACAGAAGTTAATAAGGGATGAATAATCCCTCAATATAAATATCTCTCACTTATTTAAA | 0.309 | – | –
8 | ACAGACGAAGGAGCCGCACAGAAGTTACTAAGGGATGAATAATCCCTCAATATAAATATCTCTCACTTATTTAAA | 0.22 | – | –
9 | ACAGACGAAGGAGCCGCACAGAAGTTATAAAGGGATGAATAATCCCTCAATATAAATATCTCTCACTTATTTAAA | 0.414 | – | –
10 | ACAGACGAAGGAGCCGCACAGAAGTTATCAAGGGATGAATAATCCCTCAATATAAATATCTCTCACTTATTTAAA | 0.365 | – | –
11 | ACAGACGAAGGAGCCGCACAGAAGTTATTAAAGGATGAATAATCCCTCAATATAAATATCTCTCACTTATTTAAA | 0.177 | 0.173 | –
12 | ACAGACGAAGGAGCCGCACAGAAGTTATTAACGGATGAATAATCCCTCAATATAAATATCTCTCACTTATTTAAA | 0.197 | 0.121 | –
13 | ACAGACGAAGGAGCCGCACAGAAGTTATTAAGAGATGAATAATCCCTCAATATAAATATCTCTCACTTATTTAAA | 0.215 | 0.134 | –
14 | ACAGACGAAGGAGCCGCACAGAAGTTATTAAGAGATGAATAATCCCTCAATATAAATTTCTCTCACTTATTTAAA | 0.113 | – | –
15 | ACAGACGAAGGAGCCGCACAGAAGTTATTAAGGAATGAATAATCCCTCAATATAAATATCTCTCACTTATTTAAA | 0.143 | – | –
16 | ACAGACGAAGGAGCCGCACAGAAGTTATTAAGGGAAGAATAATCCCTCAATATAAATATCTCTCACTTATTTAAA | 0.573 | 0.452 | –
17 | ACAGACGAAGGAGCCGCACAGAAGTTATTAAGGGATGAACAATCCCTCAATATAAATATCTCTCACTTATTTAAA | 0.614 | – | –
18 | ACAGACGAAGGAGCCGCACAGAAGTTATTAAGGGATGAATAAACCCTCAATATAAATATCTCTCACTTATTTAAA | 0.34 | 0.294 | –
19 | ACAGACGAAGGAGCCGCACAGAAGTTATTAAGGGATGAATAATACCTCAATATAAATATCTCTCACTTATTTAAA | – | 0.118 | –
20 | ACAGACGAAGGAGCCGCACAGAAGTTATTAAGGGATGAATAATCACTCAATATAAATATCTCTCACTTATTTAAA | 0.125 | – | –

Row | Sequence | cleaved RNA product abundance [1] | cleaved RNA product abundance [2] | cleaved RNA product abundance [3]
21 | ACAGACGAAGGAGCCGCACAGAAGTTATTAAGGGATGAATAATCCCTAAATATAAATATCTCTCACTTATTTAAA | 0.586 | – | –
22 | ACAGACGAAGGAGCCGCACAGAAGTTATTAAGGGATGAATAATCCCTCAAAATAAATATCTCTCACTTATTTAAA | 0.337 | – | –
23 | ACAGACGAAGGAGCCGCACAGAAGTTATTAAGGGATGAATAATCCCTCAACATAAATATCTCTCACTTATTTAAA | 0.294 | 0.198 | –
24 | ACAGACGAAGGAGCCGCACAGAAGTTATTAAGGGATGAATAATCCCTCAATAAAAATATCTCTCACTTATTTAAA | 0.116 | – | –
25 | ACAGACGAAGGAGCCGCACAGAAGTTATTAAGGGATGAATAATCCCTCAATATAAAGATCTCTCACTTATTTAAA | 0.549 | – | –
26 | ACAGACGAAGGAGCCGCACAGAAGTTATTAAGGGATGAATAATCCCTCAATATAAATATCTCTCACTTATTTAAA | 1.04 | 0.962 | 1.07
27 | ACAGACGAAGGAGCCGCACAGAAGTTATTAAGGGATGAATAATCCCTCAATATACATATCTCTCACTTATTTAAA | 1.13 | – | –
28 | ACAGACGAAGGAGCCGCACAGAAGTTATTAAGGGATGAATAATCCCTGAATATAAATATCTCTCACTTATTTAAA | 0.523 | – | –
29 | ACAGACGAAGGAGCCGCACAGAAGTTATTAAGGGATGAATAATCCCTTAATATAAATATCTCTCACTTATTTAAA | 0.633 | – | –
30 | ACAGACGAAGGAGCCGCACAGAAGTTATTAAGGGATGAATAATCCTTCAATATAAATATCTCTCACTTATTTAAA | 0.469 | 0.461 | –
31 | ACAGACGAAGGAGCCGCACAGAAGTTATTAAGGGATTAATAATCACTCAATATAAATATCTCTCACTTATTTAAA | 0.293 | – | –
32 | ACAGACGAAGGAGCCGCACAGAAGTTATTAAGGGATTAATAATCCCTCAATATAAATATCTCTCACTTATTTAAA | 0.962 | – | –
33 | ACAGACGAAGGAGCCGCACAGAAGTTATTAAGGGTTGAATAATCCCTCAATATAAATATCTCTCACTTATTTAAA | 0.473 | – | –
34 | ACAGACGAAGGAGCCGCACAGAAGTTATTAAGGTATGAATAATCCCTCAATATAAATATCTCTCACTTATTTAAA | 0.198 | 0.102 | –
35 | ACAGACGAAGGAGCCGCACAGAAGTTATTAAGTGATGAATAATCCCTCAATATAAATATCTCTCACTTATTTAAA | 0.126 | 0.106 | –
36 | ACAGACGAAGGAGCCGCACAGAAGTTATTAATGGATGAATAATCCCTCAATATAAATATCTCTCACTTATTTAAA | 0.165 | 0.103 | –
37 | ACAGACGAAGGAGCCGCACAGAAGTTATTCAGGGATGAATAATCCCTCAATATAAATATCTCTCACTTATTTAAA | 1.28 | – | –
38 | ACAGACGAAGGAGCCGCACAGAAGTTATTTAGGGATGAATAATCCCTCAATATAAATATCTCTCACTTATTTAAA | 0.843 | – | –
39 | ACAGACGAAGGAGCCGCACAGAAGTTCTTAAGGGATGAATAATCCCTCAATATAAATATCTCTCACTTATTTAAA | 0.275 | – | –
40 | ACAGACGAAGGAGCCGCACAGAATTTATTAAGGGATGAATAATCCCTCAATATAAATATCTCTCACTTATTTAAA | 0.488 | 0.544 | –

Row | Sequence | cleaved RNA product abundance [1] | cleaved RNA product abundance [2] | cleaved RNA product abundance [3]
41 | ACAGACGAAGGAGCCGCACAGATGTTATTAAGGGATGAATAATCCCTCAATATAAATATCTCTCACTTATTTAAA | 1.11 | – | –
42 | ACAGACGAAGGAGCCGCACATAAGTTATTAAGGGATGAATAATCCCTCAATATAAATATCTCTCACTTATTTAAA | 1.07 | 0.732 | –
43 | ACAGACGAAGGAGCCGCAGAAAAGTTATTAAGGGATGAATAATCCCTCAATATAAATATCTCTCACTTATTTAAA | 1.24 | 1.14 | –
44 | ACAGACGAAGGAGCCGCAGACAAGTTATTAAGGGATGAATAATCCCTCAATATAAATATCTCTCACTTATTTAAA | 0.844 | – | –
45 | ACAGACGAAGGAGCCGCAGAGAAGTTAATAAGGGATGAATAATCCCTCAATATAAATATCTCTCACTTATTTAAA | 0.449 | – | –
46 | ACAGACGAAGGAGCCGCAGAGAAGTTATAAAGGGATGAATAATCCCTCAATATAAATATCTCTCACTTATTTAAA | 0.295 | – | –
47 | ACAGACGAAGGAGCCGCAGAGAAGTTATCAAGGGATGAATAATCCCTCAATATAAATATCTCTCACTTATTTAAA | 0.328 | – | –
48 | ACAGACGAAGGAGCCGCAGAGAAGTTATTAAAGGATGAATAATCCCTCAATATAAATATCTCTCACTTATTTAAA | 0.227 | 0.128 | –
49 | ACAGACGAAGGAGCCGCAGAGAAGTTATTAAGAGATGAATAATCCCTCAATATAAATATCTCTCACTTATTTAAA | 0.118 | 0.0994 | –
50 | ACAGACGAAGGAGCCGCAGAGAAGTTATTAAGCGATGAATAATCCCTCAATATAAATATCTCTCACTTATTTAAA | 0.171 | – | –
51 | ACAGACGAAGGAGCCGCAGAGAAGTTATTAAGGAATGAATAATCCCTCAATATAAATATCTCTCACTTATTTAAA | 0.143 | – | –
52 | ACAGACGAAGGAGCCGCAGAGAAGTTATTAAGGGATGAATAATCCATCAATATAAATATCTCTCACTTATTTAAA | 0.178 | – | –
53 | ACAGACGAAGGAGCCGCAGAGAAGTTATTAAGGGATGAATAATCCCACAATATAAATATCTCTCACTTATTTAAA | 0.235 | – | –
54 | ACAGACGAAGGAGCCGCAGAGAAGTTATTAAGGGATGAATAATCCCTAAATATAAATATCTCTCACTTATTTAAA | 0.755 | – | –
55 | ACAGACGAAGGAGCCGCAGAGAAGTTATTAAGGGATGAATAATCCCTCAATATAAATAACTCTCACTTATTTAAA | 0.451 | 0.518 | –
56 | ACAGACGAAGGAGCCGCAGAGAAGTTATTAAGGGATGAATAATCCCTCAATATAAATATCTCTCACTTATTTAAA | 0.799 | 0.839 | 0.208
57 | ACAGACGAAGGAGCCGCAGAGAAGTTATTAAGGGATGAATAATCCCTCAGTATAAATATCTCTCACTTATTTAAA | 0.337 | – | –
58 | ACAGACGAAGGAGCCGCAGAGAAGTTATTAAGGGATGAATAATCCGTCAATATAAATATCTCTCACTTATTTAAA | 0.294 | – | –
59 | ACAGACGAAGGAGCCGCAGAGAAGTTATTAAGGGATGATTAATCCCTCAATATAAATATCTCTCACTTATTTAAA | – | 0.638 | –
60 | ACAGACGAAGGAGCCGCAGAGAAGTTATTAAGGGATTAATAATCCCTCAATATAAATATCTCTCACTTATTTAAA | 0.696 | – | –

Source: the supplement of paper PMC11780869
